The source of these data is article doi:10.1101/2021.02.17.431492 (bioRxiv, 2021).

Assay [1] has as its target monomeric SARS-CoV-2 receptor binding domain (RBD) (SARS-CoV-2, UniProt P0DTC2). In words: SPR. (In general: Surface plasmon resonance follows binding to a sensor surface in real time, without labels.)
Assay [2] deals with SARS-CoV-2 RBD sortase A conjugated nanoparticle (RBD-scNP) (SARS-CoV-2, Wuhan strain (RBD moiety), UniProt P0DTC2). In words: BLI. (BLI is a label-free optical method that tracks binding on a fibre tip over time.)

B1: DH1047 antigen binding fragment (Fab) (Fab, V domains shown)
VH: QVQLVQSGAEVKKPGASVQVSCQASANTFTNHYIHWVRQAPGQGLEWMGIIYPTGGNTIYAQGFQGRVTMTRDTSLNTIYLELSSLRSEDTAVYYCARDVRVDDSWSGYDLLSGGTYFDYWGQGTLVTVSS
VL: not shown
B1 yielded a Kd in assay [1] below 0.02 nM.

B2: DH1041 (ACE2 binding site-targeting RBD neutralizing antibody) (antibody, V domains shown)
VH: EVQLVESGGGLVQPGGSLRLSCAASGVTFSSYWMSWVRQAPGKGLEWVANIRQDGSEKYSVDSVKGRFTISRDNAKNSLYLQMNSLRAEDTAVYYCARARRADNSGYYGFHFDCWGQGTLVTVSS
VL: QSVLTQPPSVSGAPGQRVTISCTGSSSNIGAGYDVHWYQQLPGTAPKLLIYGNNNRPSGVPDRFSDSKSGTSASLAITRLQAEDEADYYCQSYDSSLSGWVFGGGTKLTVL
As for B2, the binding result in assay [2] is “binds”.

In general, Kd refers to the free concentration of one partner at which half of the binding sites on the other are occupied at equilibrium, for simple one-to-one binding. A lower Kd goes with tighter binding.
